The record followed here is patent CN111171150A (BEIJING ZHIREN MEIBO BIOTECHNOLOGY CO LTD, dated 2020).

The target in test [1] is T1, mfTSLP (cynomolgus monkey (Macaca fascicularis)).
T1 construct: also called 猴TSLP; 食蟹猴TSLP
T1 chain: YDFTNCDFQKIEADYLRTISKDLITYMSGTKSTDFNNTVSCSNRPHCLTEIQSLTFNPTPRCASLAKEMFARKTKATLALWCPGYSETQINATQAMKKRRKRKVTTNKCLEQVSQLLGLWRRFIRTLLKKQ
The experiment in a line: SPR (Biacore X100) as in Example 3.1, antibody captured, mfTSLP as analyte.

The target of test [2] is T2, hTSLP1-m-His (human (homo sapiens), UniProt Q969D9 29-159).
T2 construct: Long version of the human TSLP extracellular region, furin site deleted, His tag at the C-terminus, made in HEK293; also called hTSLP-m-his; not shown: C-terminal His tag
Put plainly: SPR (Biacore X100), antibody captured by anti-human IgG (Fc) on CM5, hTSLP1-m-his as analyte, 25 C, 1:1 fit.

Test [3] concerns the target T2, hTSLP1-m-His. The experiment in a line: SPR (Biacore X100) as in Example 3.1, antibody captured, hTSLP as analyte.
Test [4] concerns the target T3, mfTSLP1-m-mFc (cynomolgus monkey (Macaca …)).
T3 construct: also called 食蟹猴TSLP
T3 chain: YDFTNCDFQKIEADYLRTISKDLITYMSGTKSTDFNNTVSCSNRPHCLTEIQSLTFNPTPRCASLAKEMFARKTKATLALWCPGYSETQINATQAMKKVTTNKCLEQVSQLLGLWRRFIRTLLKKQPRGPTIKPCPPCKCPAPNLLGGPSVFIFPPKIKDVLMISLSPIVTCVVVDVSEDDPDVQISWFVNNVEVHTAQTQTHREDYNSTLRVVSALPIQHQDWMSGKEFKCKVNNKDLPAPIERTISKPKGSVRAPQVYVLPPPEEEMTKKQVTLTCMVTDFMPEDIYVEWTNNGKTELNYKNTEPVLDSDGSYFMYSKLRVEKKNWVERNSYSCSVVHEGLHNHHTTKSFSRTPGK
The experiment in a line: ELISA on coated mfTSLP1-m-mFc (1 μg/mL), HRP anti-human IgG.

The target in test [5] is T4, mTSLP-mFc (mouse (mus musculus)).
T4 construct: also called 小鼠TSLP
T4 chain: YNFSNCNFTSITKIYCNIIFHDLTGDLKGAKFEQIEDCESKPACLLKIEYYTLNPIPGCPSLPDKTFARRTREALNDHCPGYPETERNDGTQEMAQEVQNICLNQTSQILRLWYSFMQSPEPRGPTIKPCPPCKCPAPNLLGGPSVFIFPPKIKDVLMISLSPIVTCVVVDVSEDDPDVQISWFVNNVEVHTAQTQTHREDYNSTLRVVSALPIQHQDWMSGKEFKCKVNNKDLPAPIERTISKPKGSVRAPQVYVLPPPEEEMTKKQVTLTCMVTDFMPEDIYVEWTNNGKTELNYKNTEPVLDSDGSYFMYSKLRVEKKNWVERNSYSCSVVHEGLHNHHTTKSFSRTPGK
The experiment in a line: ELISA on coated mTSLP-mFc (1 μg/mL), HRP anti-human IgG.

Test [6] deals with T5, hTSLP1-m-mFc (human (homo sapiens)); mouse (mus …, limits assumed).
T5 construct: also called 人TSLP
T5 chain: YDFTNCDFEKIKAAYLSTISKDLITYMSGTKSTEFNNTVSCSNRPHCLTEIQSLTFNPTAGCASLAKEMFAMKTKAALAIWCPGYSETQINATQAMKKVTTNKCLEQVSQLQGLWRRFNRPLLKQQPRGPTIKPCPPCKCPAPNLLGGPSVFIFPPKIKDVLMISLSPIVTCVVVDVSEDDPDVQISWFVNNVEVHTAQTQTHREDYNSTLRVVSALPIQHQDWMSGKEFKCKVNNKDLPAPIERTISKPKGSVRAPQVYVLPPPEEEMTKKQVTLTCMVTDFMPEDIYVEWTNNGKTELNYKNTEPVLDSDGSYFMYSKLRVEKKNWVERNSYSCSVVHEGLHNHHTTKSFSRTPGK
The experiment in a line: ELISA on coated hTSLP1-m-mFc (1 μg/mL), HRP anti-human IgG.

The target in test [7] is T2, hTSLP1-m-His. The experiment in a line: competition ELISA on coated hTSLP1-m-his; competitor Tezepelumab-mIgG2a; HRP anti-human IgG.

B1: Tezepelumab (antibody, V domains shown)
VH: QMQLVESGGGVVQPGRSLRLSCAASGFTFRTYGMHWVRQAPGKGLEWVAVIWYDGSNKHYADSVKGRFTITRDNSKNTLNLQMNSLRAEDTAVYYCARAPQWELVHEAFDIWGQGTMVTVSS
VL: SYVLTQPPSVSVAPGQTARITCGGNNLGSKSVHWYQQKPGQAPVLVVYDDSDRPSWIPERFSGSNSGNTATLTISRGEAGDEADYYCQVWDSSSDHVVFGGGTKLTVL
notes: also called AMG 157; MEDI9929
As for B1, binding in test [1] was characterised by a dissociation constant (Kd) of 0.00816 nM.

B2: S2B1-IgG4 (antibody, V domains shown)
VH: EVKLQQSGAELVRPGSSVKISCKASGYAFSNYWMNWVKQRPGQGLEWIGQIFPGDGDTDYNGKFKGKATLTADKSSSTAYMQLSSLTSEDSAVYFCARAGYYRGYYAMDYWGQGTSVTVSA
VL: EIVLTQSPALMAASPGEKVTITCSVSSSISSSNLHWYQQKSETSPKPWIYGTSNLASGVPVRFSGSGSGTSYSLTISSMEAEDAATYYCQQWSSYPLTFGAGTKLEIK
In the case of B2, the Kd is 9.2 pM in test [2] and 0.012 nM in test [3].

B3: H1A10+L3E8-M1 (antibody, human IgG4, V domains shown)
VH: QVQLVQSGAEVKKPGASVKVSCKASGYAFSNYWMNWVRQAPGQGLEWMGQIFPGDSDTDYDQKFQGRVTMTRDTSTSTVYMELSSLRSEDTAVYYCARAGYYRGYYAMDYWGQGTTVTVSS
VL: EIVMTQSPATLSVSPGERATLSCSVSSSISSSNLHWYQQKPGQAPRPWIYGTSNLASGIPARFSGSGSGTEFTLTISSLQSEDFAVYYCQQWSSYPLTFGQGTKLEIK
notes: also called L3E8人源化突变体; 人源化抗TSLP单克隆抗体
As for B3, the binding result in test [4] was “binds”; in test [5], “no binding”; in test [6], “binds”. In test [1], the Kd was 2.66 nM.

B4: H1A10+L3E8-M1-IgG1m3 (antibody, V domains shown)
VH: QVQLVQSGAEVKKPGASVKVSCKASGYAFSNYWMNWVRQAPGQGLEWMGQIFPGDSDTDYDQKFQGRVTMTRDTSTSTVYMELSSLRSEDTAVYYCARAGYYRGYYAMDYWGQGTTVTVSS
VL: EIVMTQSPATLSVSPGERATLSCSVSSSISSSNLHWYQQKPGQAPRPWIYGTSNLASGIPARFSGSGSGTEFTLTISSLQSEDFAVYYCQQWSSYPLTFGQGTKLEIK
notes: IgG1m3 version; also called L3E8人源化突变体(IgG1m3版本)
Regarding B4, the binding result in test [7] is “binds”.

B5: H1A10+L3E8-M4 (antibody, IgG4, V domains shown)
VH: QVQLVQSGAEVKKPGASVKVSCKASGYAFSNYWMNWVRQAPGQGLEWMGQIFPGDSDTDYDQKFQGRVTMTRDTSTSTVYMELSSLRSEDTAVYYCARAGYYRGYYAMDYWGQGTTVTVSS
VL: EIVMTQSPATLSVSPGERATLSCSVSSSISSSNLHWYQQKPGQAPRPWIYGTSNLASGIPARFSGSGSGTEFTLTISSMEAEDFAVYYCQQWSSYPLTFGQGTKLEIK
notes: also called L3E8人源化突变体
As to B5, the binding result is “binds” in test [4], “no binding” in test [5] and “binds” in test [6]. In test [1], this molecule showed a Kd of 2.63 nM.

B6: H1A10+L3E8-M3-IgG1m3 (antibody, V domains shown)
VH: QVQLVQSGAEVKKPGASVKVSCKASGYAFSNYWMNWVRQAPGQGLEWMGQIFPGDSDTDYDQKFQGRVTMTRDTSTSTVYMELSSLRSEDTAVYYCARAGYYRGYYAMDYWGQGTTVTVSS
VL: EIVMTQSPATLSVSPGERATITCSVSSSISSSNLHWYQQKPGQAPRPWIYGTSNLASGIPARFSGSGSGTEFTLTISSLQSEDFAVYYCQQWSSYPLTFGQGTKLEIK
notes: as for B4
On to B6, for which the binding result in test [7] is given as “binds”.

B7: H1A10+L3E8 (antibody, V domains shown)
VH: QVQLVQSGAEVKKPGASVKVSCKASGYAFSNYWMNWVRQAPGQGLEWMGQIFPGDSDTDYDQKFQGRVTMTRDTSTSTVYMELSSLRSEDTAVYYCARAGYYRGYYAMDYWGQGTTVTVSS
VL: EIVMTQSPATLSVSPGERATITCSVSSSISSSNLHWYQQKPGQAPKPWIYGTSNLASGIPARFSGSGSGTEFSLTISSVEAEDAAVYYCQQWSSYPLTFGQGTKLEIK
In the case of B7, the figures for the binding result in test [4], in test [5] and in test [6] were “binds”, “no binding” and “binds”, respectively.

B8: H1A10+L3E8-M4-IgG1m3 (antibody, V domains shown)
VH: QVQLVQSGAEVKKPGASVKVSCKASGYAFSNYWMNWVRQAPGQGLEWMGQIFPGDSDTDYDQKFQGRVTMTRDTSTSTVYMELSSLRSEDTAVYYCARAGYYRGYYAMDYWGQGTTVTVSS
VL: EIVMTQSPATLSVSPGERATLSCSVSSSISSSNLHWYQQKPGQAPRPWIYGTSNLASGIPARFSGSGSGTEFTLTISSMEAEDFAVYYCQQWSSYPLTFGQGTKLEIK
notes: as for B4
Consider B8, for which, in test [7], the binding result is listed as “binds”.

B9: H1A10+L3E8-M2-IgG1m3 (antibody, V domains shown)
VH: QVQLVQSGAEVKKPGASVKVSCKASGYAFSNYWMNWVRQAPGQGLEWMGQIFPGDSDTDYDQKFQGRVTMTRDTSTSTVYMELSSLRSEDTAVYYCARAGYYRGYYAMDYWGQGTTVTVSS
VL: EIVMTQSPATLSVSPGERATLSCSVSSSISSSNLHWYQQKPGQAPKPWIYGTSNLASGIPARFSGSGSGTEFTLTISSLQSEDFAVYYCQQWSSYPLTFGQGTKLEIK
notes: as for B4
Turning to B9, the binding result in test [7] was “binds”.

B10: H1A10+L3E8-M2 (antibody, IgG4, V domains shown)
VH: QVQLVQSGAEVKKPGASVKVSCKASGYAFSNYWMNWVRQAPGQGLEWMGQIFPGDSDTDYDQKFQGRVTMTRDTSTSTVYMELSSLRSEDTAVYYCARAGYYRGYYAMDYWGQGTTVTVSS
VL: EIVMTQSPATLSVSPGERATLSCSVSSSISSSNLHWYQQKPGQAPKPWIYGTSNLASGIPARFSGSGSGTEFTLTISSLQSEDFAVYYCQQWSSYPLTFGQGTKLEIK
notes: also called L3E8人源化突变体
On to B10, for which the figures for the binding result in test [4], in test [5] and in test [6] were “binds”, “no binding” and “binds”, respectively. The Kd in test [1] was 2.59 nM.

B11: H1A10+L3E8-M3 (antibody, IgG4, V domains shown)
VH: QVQLVQSGAEVKKPGASVKVSCKASGYAFSNYWMNWVRQAPGQGLEWMGQIFPGDSDTDYDQKFQGRVTMTRDTSTSTVYMELSSLRSEDTAVYYCARAGYYRGYYAMDYWGQGTTVTVSS
VL: EIVMTQSPATLSVSPGERATITCSVSSSISSSNLHWYQQKPGQAPRPWIYGTSNLASGIPARFSGSGSGTEFTLTISSLQSEDFAVYYCQQWSSYPLTFGQGTKLEIK
notes: also called L3E8人源化突变体
For B11, the values for the binding result in test [4], in test [5] and in test [6] were “binds”, “no binding” and “binds”, respectively. This molecule showed a Kd in test [1] of 2.37 nM.
